Consider 19 variants from the RNAGym collection of RNA variant scans (doi:10.1073/pnas.2313332121).

B1: TPR 5TU (parent)
chain: GGAUCUUCUCGAUCUAACAAAAAAGACAAAUCUGCCACAAAGCUUGAGAGCAUCUUCGGAUGCAGAGGCGGCAGCCUUCGGUGGCGCGAUAGCGCCAACGUUCUCAACUAUGACACGCAAAACGCGUGCUCCGUUGAAUGGAGUUUAUCAUG

This sample holds only a part of the variants without activity.

Variants of B1 are the subject of this series. Nature of the series: polymerase ribozyme fitness, log enrichment relative to wild type (log ratio); higher = more active; in vitro selection for triplet polymerase activity. The method in brief: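 For each subunit of a heterodimeric triplet polymerase ribozyme, a mutant library was built by PCR and transcribed, then taken through a single in vitro selection round in triplicate. Selection involved annealing to a biotinylated primer, the partner subunit and triplets, incubation frozen at −7 °C, gel excision of extended constructs, capture on streptavidin beads and RT-PCR. Genotypes were retained after Illumina sequencing of inputs and outputs only with ≥10 input reads and ≥1 read in each output. Fitness is defined as the logarithm of a genotype's enrichment relative to wild-type enrichment, using inverse-variance-weighted averages across replicates, with the logarithm taken to base 2.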
Take GGAUCUUCUCGAUCUAAUAAAAAAGACAAAUCUGCCACAAAGCUUGAGAGCAUCUUCGGAUGCAUAGGCGGCGGCCUUCGGUGGUGCGAUAGCGCCAACGUUCUCAACUAUGACACGCAAAACGCGUGCUCCGUUGAAUGCAGUUUAUCAUG [C18U G65U A73G C85U G141C]: the “polymerase ribozyme fitness (log ratio)” value was no more than -4.2.
Under GGAUCUUCUCGAUCUAAUAAAAAAGACAAAUCUGCCACAAAGCUUGAGAGCAUCUUCGGAUGCAGAGGCGGCAGCCUUCGGUGACGCGAUAGCGCCAACGUUCUCAACUAUGACACGCAAAACGCGUGCUCCGUUGAAUGGAGUUUAUCAUG [C18U G84A] stands -0.579; under GGAUCUUCUCGAUCUAACCAAAAAGAAAAAUCUGCCACCAAGCUUGAGAGCAUCUUCGGAUGCAGAGGCGGCAGCCUUUGGUGGCGCGAUAGAGCCAACGUGCUCAACUAUGACACCCAAAACGCGUGCUCCGUUGAAUGGAGUUUAUCAUG [A19C C27A A39C C79U C93A U102G G117C], -4.01.
With GGAUCUUCUCGAUCUAACCAAAAAGACAAAUCUGCCACAAGGCUUGAGAGCAUCUUCGUAUGCAGAGGCGGCAGCCUUCGGUGGCGCGAUCGCGCCAACGUUCUCAGCUAUGACACGCAUAACGCGUGCUCCGUUGAAUGGAGUUUAUCAUG [A19C A41G G59U A91C A107G A120U], the “polymerase ribozyme fitness (log ratio)” value is no more than -4.2.
For the variant GGAUCUUCUCGAUCUAACCAAAAAGACAAAUCUGCCACAAGGCUUGAGAGCAUCUUCGGAUGCAGAGGCGGCAGCCUUCGGUGGCGCGAUAGCGCCAACGUUCUCAACUAUGACACGCAAAACGCGUGCUACGUUGAUUGGAGUUUAUCAUG [A19C A41G C131A A138U], the “polymerase ribozyme fitness (log ratio)” value is no more than -4.2.
Under GGAUCUUCUCGAUCUAACCAAAAAGACAUAUCUGCCACAAAGCUUGAGAGCAUGUUCGGAUGCAGAGGCGGCAGCCUUCGGUGGCGCGAUAGCGCCAACGUUCUCAAUUAUGACACGCAAAACGCGUGCUCCGUUGAAUGGAGUUUAUCAUG [A19C A29U C54G C108U] stands no more than -4.2; under GGAUCUUCUCGAUCUAAUAAAAAAGACAAAUCUGCCACAAAGCAUGAGAACUUCUUCGGAUGCAGAGGCGGCAACCUUCGGUGGCGCGAUUGCGCCAACGUUCUGGACUAUGACACGCAAAACGCGUGGUCCGUUGAAUGGAGUUUAUCAUG [C18U U44A G50A A52U G74A A91U C105G A106G C129G], no more than -4.2; under GGAUCUUCUCGAUCUAACCAUAAAGACAAAUCUGCCACAAAGCUUGAGAGCAUCUUCGGAUGCAGAGGCGGCAGCCUUCGGUGGCGCGAUAGCGCCAACGAUCUCAACUAUGACACGCAAAACGCGUGCUCCGUUGAAUGGAGUUUAUCAUG [A19C A21U U101A], 0.427.
Turning to GGAUCUUCUCGAUCUAAUAAAAAAGACAAAUCUGCCACAAAGCUUGAGAGCAUCUUCGGAUACAGAAGCGGCAGCCGUCGGUGGCGAGAUAGCGCCAACGCUCUCAACUAUGACACGCAAAAUGCGUGCUCCGUUAAAUGGAGUUUAUCAUG [C18U G62A G67A U77G C87A U101C C123U G136A], the “polymerase ribozyme fitness (log ratio)” value was no more than -4.2.
Under GGAUCUUCUCGAUCUAAUAAAAAAGACAAAGCUGCCCCAAAGCUUGAGAGCAUUUUCGGAUGCAGAGGCGGCAGCCUUCGGUGGCGCGAUCGCGCCAACGUUCUCAACUAUGACACGCAAAACGCGUGCUCCGCUGAAUGGAGUUCAUCAUG [C18U U31G A37C C54U A91C U134C U146C] stands no more than -4.2.
The figure for GGAUCUUCUCGAUCUAAUAAAAAAGACAAAUCUGCCACAAAGCUUGAGAUCAUCUUCGGAUGCAGAGGCGGCAGCCUUCGGUGGCGCGAUAGCGCGAACGUUCUCAACUAUGACACGCAAAACGCGUGCUCCGUUGAAUGGAGUUCAUCAUG [C18U G50U C96G U146C] is -0.747; for GGAUCUUCUCGAUCUAAUAAAAAAGACAAAUCUGCCACAAAGCUUGAGAGCAUCUUCGGAUGCAGAGGCGGCAGCCUUCGGUGGCGCCAUAGCGCCAACGUUAUCAACUAUCACACGCAAAACGCGUGCUCCGUUGAAUGGACUUUAUCAUG [C18U G88C C103A G112C G143C] it is no more than -4.2.
Take GGAUCUUCUCGAUCUAAUAAAAAAGACAAAUCUGCCACAAAGCUUGAGAGCAACUUCGGAUGCAGAGGCGGCAGCCUUCGGUGGAGCGAUAGCGCAAACGUUCUCAACUAUGACACGCAAAACGCGUGCUCCGUUGGAUGGAGUUUAUCAUG [C18U U53A C85A C96A A137G]: the “polymerase ribozyme fitness (log ratio)” value was no more than -4.2.
Under GGAUCUUCUCGAUCUAACCAAAAAGAAAAAUCUGCCACAAAGCUUGAGAGCAUCUUCGGAUGCAGAGGCGGCAGCCUUCGGUGGCGCGAUAGCGCCAACGUUCUCAACUAUGACACGCAAAACGUGUGCUCCGUUGAAUGGAGUUUAGCAUG [A19C C27A C125U U148G] stands no more than -4.2.
Under GGAUCUUCUCGAUCUAACCAAAAAGACAAAUCUGCCACAAAGCUUGAGAGCUUCUUCGGAUGCAGAGGCGGCAGCCUUCGGUGGCGCGAUAGCGCCAACGUUCUCAACUAUGACACGCAAAACGCGUGCUCCGUUGAAUGGAGUUUAUCAUG [A19C A52U] stands -1.43; under GGAUCUUCUCGAUCUAAUAAAAAAGACAAAUCUGCCACAAAGCUUGAGAGCAUCUUCGGAUGCAGAGGCGGCAGCCUUCGGUGGCACGAUAGCGCCAACGUUCUCAACUAUGACACGCAAAACGCGUGCUCCGUUGAAUAGAGUUUAUCAUG [C18U G86A G140A], no more than -4.2; under GGAUCUUCUCGAUCUAACCAAAAUGACAAAUCUGCCACAAAGCUUGAGAGCAUCUUGGGAUGCAGAGGCGGCAGUCUUCGGUGGCGCGAUAUCGCCAACGUUCUCAACUAUGACACGAAAAACGCGUGCUCCGUUGAAUGGAGUUUAUCAUG [A19C A24U C57G C75U G92U C118A], -0.536.
The figure for GGAUCUUCUCGAUCUAAUAAAAAAGACAAAUCUGCCACAAAGCUUGAGAGCAUCUUCCGAUGCAGAGGCGGCAGCCUUCGGUGGUGUGAUAGCGCCAACGUUCUCAACUAUGACACGCAAAACGCGUGCUCCGUUGAAUGGAGUUUAUCAUG [C18U G58C C85U C87U] is -1.92; for GGAUCUUCUCGAUCUAACCAAAAAGACAAAUCUGCCACAAAGCUUGAGAGCAUCUUCGGAUGCAGAGGCGGCAGCCUUCGGUGGCGCGAUUGCGACAACGUUCUCAACUAUGACACGCAAAACGCGUGCUCCGUUGAAUGGAGUUUAUCAUG [A19C A91U C95A] it is no more than -4.2.
